Data as given in publication doi:10.1101/820647.
pKd: −log10 of the molar value.

How the values were obtained:
Assay in all cases: ITC
[1] = biological target: CDY1 chromodomain (aa 2-63) (human) (UniProt Q9Y6F8)
[2] = biological target: CDYL1b chromodomain (aa 1-66) (human) (UniProt Q9Y232)
[3] = biological target: CDYL2 chromodomain (aa 2-62 or 2-64) (human) (UniProt Q8N8U2)
Sequence of UniProt Q8N8U2 (Q8N8U2 2-64): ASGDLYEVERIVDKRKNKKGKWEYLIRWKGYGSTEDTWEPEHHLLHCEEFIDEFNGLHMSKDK

Sequence of UniProt Q9Y6F8 (Q9Y6F8 2-63): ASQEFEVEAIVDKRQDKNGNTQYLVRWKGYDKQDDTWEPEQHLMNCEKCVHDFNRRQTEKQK

pKd [1]	fold more potent than to CBX7 [2]	fold more potent than to CBX7 [3]	Substance
4.49	–	–	H3tK27me3 peptide (testis-specific histone H3t)
4.03	–	–	H3K27me3 peptide (canonical histone H3)
–	10 fold	10 fold	UNC4850 (peptide)
6.30	–	–	H3K9me3 peptide
